# From paper PMC2132943
# Molecular target: CCR5 chemokine receptor (human) (UniProt P51681)
# Experiment: cross-linking
# Chain of CCR5 chemokine receptor, P51681 1-352 (receptor; other documents disagree on this pair) (P51681 whole entry): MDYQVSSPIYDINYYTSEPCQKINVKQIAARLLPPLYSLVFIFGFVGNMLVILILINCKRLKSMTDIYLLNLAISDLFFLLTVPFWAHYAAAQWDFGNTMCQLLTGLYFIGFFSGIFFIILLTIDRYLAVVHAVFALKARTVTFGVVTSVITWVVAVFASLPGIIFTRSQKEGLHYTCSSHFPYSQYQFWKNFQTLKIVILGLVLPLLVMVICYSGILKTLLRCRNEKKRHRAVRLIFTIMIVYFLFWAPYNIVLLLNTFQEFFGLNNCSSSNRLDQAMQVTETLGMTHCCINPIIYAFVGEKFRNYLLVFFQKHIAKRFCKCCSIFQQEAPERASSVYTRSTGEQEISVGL
substance,measurement,value
"CCR5 chemokine receptor, P51681 1-352 (receptor; other documents disagree on this pair)",stoichiometry N,2
